The test system of experiment [1] is Slug protein and pY416 SFK in MCF10A cells. In words: Immunoblots of MCF10A cells stimulated with TGF-b2 and treated with inhibitors or antibody. Particulars: for Slug protein levels: 10 mM MG132, 5 hr prior to lysis. Format: cell-based, human. The procedure:
FIGS. 21F-G illustrate Immunoblots of MCF10A cells stimulated with TGF-b2 or vehicle control and probed for the indicated proteins. FIG. 21F: Cells were transfected with control (Ctrl) or b3 siRNA and additionally treated with vehicle or proteasome inhibitor (MG132) for 5 hr prior to lysis. FIG. 21G: Cells were treated with 100 nM Src inhibitor (dasatinib) for the indicated length of time prior to lysis. FIG. 21F and FIG. 21G: Data shown are representative of three independent experiments.
Indeed, Slug protein levels are highly regulated through degradation by the proteasome (Kim et al. 2012; Wu et al., 2012). […] Thus, it appears that TGF-β2-stimulated expression of a αvβ3 mediates SFK activation resulting in enhanced Slug protein stability.
(§1) For experiments with MCF10A and HMECs, TGF-b2 stimulations were performed with 5 ng/ml TGF-b2 (PeproTech) or 0.1% BSA/PBS (vehicle) for 48 hr prior to lysis. In some experiments, […] of the anti-αvβ3 function-blocking antibody LM609 (Millipore) was added to cells at the same time as TGF-b2 or vehicle addition. For the proteasome inhibitor experiments, 10 mM MG132 (Sigma-Aldrich) or DMSO (vehicle) was added to transfected MCF10A cells 5 hr prior to lysis. Treatment of MCF10A cells with the SFK inhibitor dasatinib (ChemieTek) or DMSO (vehicle) was performed with 100 nM dasatinib for the indicated times prior to harvesting lysates.
(In general: Immunoblotting shows a protein as a band on a membrane.)

The test system of experiment [2] is ITGB3 promoter in HCC827 cells. Particulars: resuming erlotinib treatment after erlotinib holiday.
Experiment [3] has as its system β3 expression in MaSCs/basal cells. In words: β3 expression in K14+SMA+ cells from virgin WT mammary cells stimulated with growth factors (immunofluorescence). The experiment is classed as cell-based, mouse. The settings on record: cells from virgin WT mice; relative to vehicle-treated cells; TGF-b2 5 ng/ml, TGF-b1 5 ng/ml, RANKL 50 ng/ml, 48 hr. An excerpt:
(§2) To examine the ability of these factors to increase β3 expression, we stimulated cells from virgin WT mice and measured β3 expression in MaSCs/basal cells, defined by expression of K14 and SMA.
FIG. 20A illustrates representative immunofluorescent images of β3 expression in K14+SMA+ cells (arrows) from pooled virgin WT mammary cells stimulated with the indicated growth factors. Nuclei are stained blue in all panels. Scale bars, […]. Data shown are representative of three independent experiments.
(§3) Cells from digested mammary glands were seeded at 40,000 cells per well onto MEFs (for colony-formation assays) or 8-well chamber slides (Lab-Tek) coated with 2% Matrigel/DMEM. At the time of seeding, cells were suspended in complete DMEM supplemented with vehicle (0.1% BSA/PBS), RANKL (50 ng/ml), TGF-b1 (5 ng/ml), or TGF-b2 (5 ng/ml) (PeproTech). Cells were fixed with 2% paraformaldehyde/PBS after 48 hr (chamber slides) or 5 days (colonies) for immunofluorescent staining.

For experiment [4], the system named is MaSC/basal and luminal colonies from virgin mammary cells. In words: Mammary colony formation on irradiated MEFs with growth factors. Format: cell-based, mouse. The settings on record: for total colony number: virgin mammary cells on irradiated MEFs. Here is the method:
This effect was reduced in mammary cells from β3KO mice (FIG. 20H), similar to our results from pregnant b3KO mice (FIG. 19C).
For colony formation on irradiated MEFs, 100,000 MEFs were seeded into 6-well dishes for 48 hr prior to adding 40,000 cells from digested mammary glands and grown in complete Dulbecco's modified Eagle's medium (DMEM). Colonies formed over 5-6 days before fixing and staining with either 0.1% crystal violet/20% methanol/PBS or 2% paraformaldehyde/PBS for immunofluorescent staining and counting colonies. For Matrigel colonies, 5,000 fluorescence-activated cell sorting (FACS) mammary gland cells were suspended in […] growth factor-reduced Matrigel (BD PharMingen) and grown 14 days in serum-free mammary epithelial cell medium-basal medium (Cambrex) supplemented with B27 supplement, 20 ng/ml epidermal growth factor, 20 ng/ml […] fibroblast growth factor, […], 100 U/ml penicillin, and […] streptomycin. Total colonies per well were counted from each of the four replicates per experiment.
as §3

The test system of experiment [5] is nuclear Slug in K14+SMA+ MaSCs/basal cells. In words: Slug expression in K14+SMA+ mammary cells stimulated with TGF-β2. Format: cell-based, mouse.
From the text: Slug was recently characterized as a determinant of the MaSC fate in the virgin mammary gland (Guo et al., 2012) and is expressed during early to midpregnancy but is negatively regulated by Elf5 during late stage pregnancy/lactation, allowing for alveolar maturation (Chakrabarti et al., 2012). Therefore, we considered whether β3 was required for TGF-β2-mediated Slug expression in MaSCs/basal cells.
To determine the potential mechanism by which αvβ3 regulates Slug, we considered whether αvβ3 signaling may be required by assessing whether the b3DC mutant affects Slug expression. […] The β3DC mutant has previously been characterized as defective in recruiting and activating Src family kinases (SFKs) (Ablooglu et al., 2009; Arias-Salgado et al., 2003; Desgrosellier et al., 2009).
FIG. 21B graphically illustrates quantitation of the percentage of Slug+K14+SMA+ cells. p=0.0439 (vehicle versus TGF-b2 inWT cells) and p=0.0342 (WT versus b3KO cells stimulated with TGF-b2). For FIG. 21A and FIG. 21B: WT, n=3, b3KO, n=3.
FIG. 21E graphically illustrates quantitation of the percentage of Slug-expressing K14+SMA+ cells from virgin WT and b3DC mammary cells stimulated with vehicle or TGF-b2. WT, n=2, b3DC, n=2. p=0.029 (vehicle versus TGF-b2 in WT cells) and p=0.032 (WT versus b3DC cells stimulated with TGF-b2).
as §3

Experiment [6] has as its system β3 expression in human mammary epithelial cells (HMECs), MCF10As. In words: Immunoblot for β3 in MCF10As and HMECs stimulated with TGF-b2. The experiment is classed as cell-based. Particulars: HMECs including MCF10As; 5 ng/ml TGF-b2, 48 hr. The procedure: FIG. 20D illustrates an image of an Immunoblot for β3 and b-actin (loading control) in MCF10As and HMECs stimulated with TGF-b2 or vehicle control. Data shown are representative of three independent experiments.
as §1

A further experiment relates to β3 promoter. Put plainly: β3 promoter luciferase reporter in MCF10A cells. Format: cell-based, human. Particulars: reporter with proximal 1,300 bp of the β3 promoter. From the text:
FIG. 20E graphically illustrates a Histogram displaying the relative luciferase activity in MCF10A cells transfected with an empty vector (Ctrl) or a luciferase reporter plasmid containing the proximal region of the β3 promoter (β3 prom-Luc) and stimulated with vehicle or TGF-β2. n=3 independent experiments. p=0.043.
For orientation: In a reporter assay the amount or activity of a reporter protein is the signal.

Experiment [7] has as its system β3 mRNA in CD29hi MaSCs/basal cells and CD29lo luminal cells. Put plainly: qPCR of β3 mRNA in vehicle versus TGF-β2-stimulated CD29hi and CD29lo cells. Format: cell-based, mouse.
From the text: as §2
FIG. 20B and FIG. 20C graphically illustrate qPCR analysis comparing the relative levels of β3 mRNA in vehicle versus TGF-β2-stimulated CD29hi (FIG. 20B) and CD29lo (FIG. 20C) cells from WT virgin mice. n=2 independent experiments (pooled samples).
For FIG. 20B, FIG. 20C, and FIG. 20F: each sample was run in triplicate, and 18S rRNA (FIG. 20B and FIG. 20C) or b-actin (FIG. 20F) was used as loading controls.

The mark [8] stands for this setting: virgin WT mammary cells on irradiated MEFs, compared to vehicle.

Peptide text beside a SMILES is read from it. * marks the point of attachment. Cbz = O=C(OCc1ccccc1)*

Consider `CC(C)C[C@@H](C=O)NC(=O)[C@H](CC(C)C)NC(=O)[C@H](CC(C)C)NC(=O)OCc1ccccc1` [MG132] (Cbz-Leu-Leu-Leu-aldehyde), for which the Slug protein levels result in experiment [1] (b3 knockdown MCF10A cells) is “restore Slug protein levels to normal”; in experiment [1] (control MCF10A cells) it was “little effect”.

As for `C#Cc1cccc(Nc2ncnc3cc(OCCOC)c(OCCOC)cc23)c1` [erlotinib], the “expression of β3 and stem cell genes OCT4 and Nanog” value in experiment [2] is “re-expression”.

For “TGF-β1: transforming growth factor β (TGF-β) family member (PeproTech)”, in experiment [3], the “β3 expression in MaSCs/basal cells (K14 and SMA expressing)” value (shortened to “β3 expression in MaSCs/basal cells”) was “not”. The total colony number result in experiment [4] is recorded as “severe growth inhibitory effect”.

B1: TGF-β2: Transforming growth factor β2, growth factor released during pregnancy (PeproTech) (protein, UniProt P61812 303-414, looked up)
Transforming growth factor …: ALDAAYCFRNVQDNCCLRPLYIDFKRDLGWKWIHEPKGYNANFCAGACPYLWSSDTQHSRVLSLYNTINPEASASPCCVSQDLEPLTILYYIGKTPKIEQLSNMIVKSCKCS
On to B1, for which the “Slug expression in K14+SMA+ cells” value in experiment [5] (cells from β3DC knockin mice) is listed as “no increase”; in experiment [5] (β3KO cells), “failed to increase Slug”. Moreover, in experiment [5] (virgin WT mammary cells, compared to vehicle control), the “nuclear Slug expression in K14+SMA+ cells” value is reported as “induced nuclear Slug expression”. The “β3 expression in MaSCs/basal cells” value in experiment [3] is recorded as “stimulated β3 expression”. Further, in experiment [6], the “β3 expression (immunoblot)” value is listed as “potent driver”. The “β3 promoter activity (relative luciferase activity)” value in the experiment with β3 promoter was “directly activating the β3 promoter”. In addition, in experiment [1] (MCF10A cells, TGF-β2 stimulation), the “expression of EMT markers such as Slug, E-cadherin, and Vimentin” value is reported as “drives changes”. The “β3 mRNA expression” value in experiment [7] (CD29hi MaSCs/basal cells from WT virgin mice) is “drive β3 mRNA expression”; in experiment [7] (CD29lo luminal cells from the same mice), “little effect”. In experiment [4] (setting [8]), the “frequency of bipotent, MaSC-like colonies” value is “increased”. Moreover, the luminal colonies entry in experiment [4] (setting [8]) was “reciprocal decrease”. Besides, the total colony number result in experiment [4] was “did not affect”.

B2: RANKL: receptor activator of nuclear factor kB ligand (protein, UniProt O14788 140-317, looked up)
Tumor necrosis factor ligand …: IRAEKAMVDGSWLDLAKRSKLEAQPFAHLTINATDIPSGSHKVSLSSWYHDRGWAKISNMTFSNGKLIVNQDGFYYLYANICFRHHETSGDLATEYLQLMVYVTKTSIKIPSSHTLMKGGSTKYWSGNSEFHFYSINVGGFFKLRSGEEISIEVSNPSLLDPDQDATYFGAFKVRDID
Consider B2, for which, in experiment [3], the “β3 expression in MaSCs/basal cells” value is “not”. The total colony number result in experiment [4] is “potent driver of colony formation”.

These data come from patent publication US11021755B2, “Compositions and methods for identifying anti cancer, anti-metastatic and anti-stress agents” (THE REGENTS OF THE UNIVERSITY OF CALIFORNIA, priority 2015, dated 2021).
